Measured values as given in patent publication US20210079101A1 (LABORATOIRE FRANAIS DU FRACTIONNEMENT ET DES BIOTECHNOLOGIES, published 2021).

Molecular target: T1, Galectin-3 protein (human, UniProt P17931 2-250)
T1 construct: Endogenous antigen in human atheroma tissue sections; also called Gal3
Experiment: double immunofluorescence staining of human endarteriectomy sections (colocalisation with anti-galectin-3 antibody)
Description: FIG. 3: Immunofluorescent staining of human endarteriectomy sections and aortas of ApoE^{-/-} and WT mouse with P3 scFv-Fc or commercial control antibodies. (A) Double immunofluorescence staining of human endarteriectomy sections. […] Size bars: 50 μm. (B) Fluorescent macroscopy of P3 scFv-Fc after ex vivo injection in ApoE^{-/-} mouse and WT mouse. A human IgG was used as a negative control antibody.
Human tissue specimens were provided by Pr DUCASSE Eric, vascular surgeon at CHU Pellegrin. For immunofluorescence stainings, human sections were deparaffinised and rehydrated. After a retrieval step (pH9), slides were blocked with (1) PBS/1% BSA/0.2% Triton X10 followed by (2) 5% goat serum and (3) addition of goat anti human IgG H+L and Fcγ specific diluted at 100 μg/mL. Primary scFv-Fc produced in baculovirus or commercially available antibodies were added overnight at 4° C. Slides were incubated with scFv-Fc diluted at 50 μg/mL in PBS/1% BSA and, as controls, secondary antibody alone or commercial antibodies according to the manufacturer's instructions. […] After 1h incubation, slides were washed in PBS 3 times and mounted with Vectashield (VWR, France).

T1 sequence (P17931 2-250 limits assumed): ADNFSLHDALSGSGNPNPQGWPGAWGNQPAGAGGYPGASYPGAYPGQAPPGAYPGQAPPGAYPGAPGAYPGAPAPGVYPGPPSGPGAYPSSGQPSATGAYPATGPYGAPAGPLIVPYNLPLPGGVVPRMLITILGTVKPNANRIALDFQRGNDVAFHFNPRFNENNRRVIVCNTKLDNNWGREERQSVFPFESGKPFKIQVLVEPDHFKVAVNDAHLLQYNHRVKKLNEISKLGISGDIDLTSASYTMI

B1: P3 scFv-Fc (Fc fusion)
chain: QVQLQQSGPGLVKPSQTLSLTCAISGDSVSSNNFGWNWIRQSPSRGLEWLGRTYYRSKWYNDYAVSVRSRITINPDTSKNQFSLQLNSVTPEDTAVYYCARQGSTYFDYWGQGTLVTVSSEFGGGGSGGGGSGGGGSRDIVMTQSPSSLSASVGDRVTITCRASQTISSSLAWFQQRPGEAPNLLIYSASSLQSGVPSRFSGSGSGTDFTLTISSLQPEDFATYSCQQTYSAPPTFGGGTKLEIK
notes: these probably describe the HEK construct without the 2 extra cysteines; also called scFv-Fc P3; Human P3 scFv-Fc; not shown: human IgG1 Fc domain with 2 extra cysteine residues at the C-terminal end (baculovirus/Sf9 construct)
  binding result: binds
